The assay has as its target equine FcRn (large alpha subunit p51) / equine beta-2-microglobulin complex, biotinylated (equine) (UniProt P30441). The assay can be described thus: SPR (Biacore), pH 6.

Residue numbers refer to the chain shown, from its start. Names and notes keep the numbering of the source.

Sequence of UniProt P30441 (P30441 21-118, one chain of several): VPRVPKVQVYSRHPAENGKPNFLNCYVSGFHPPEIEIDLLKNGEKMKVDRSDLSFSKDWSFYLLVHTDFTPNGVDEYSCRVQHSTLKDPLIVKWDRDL

B1: equine IgG4 A426Y (antibody, part only; not given: variable domains, not shown: another chain or arm of the molecule)
constant: ASTTAPKVFPLASHSAATSGSTVALGCLVSSYFPEPVTVSWNSGALTSGVHTFPSVLQSSGLYSLSSMVTVPASSLKSQTYICNVAHPASSTKVDKKIVIKECNGGCPAECLQVGPSVFIFPPKPKDVLMISRTPTVTCVVVDVGHDFPDVQFNWYVDGVETHTATTEPKQEQFNSTYRVVSVLPIQHKDWLSGKEFKCKVNNKALPAPVERTISKPTGQPREPQVYVLAPHRDELSKNKVSVTCLVKDFYPTDIDIEWKSNGQPEPETKYSTTPAQLDSDGSYFLYSKLTVETNRWQQGTTFTCYVMHEALHNHYTEKSVSKSPGK
In turn, B1 gave a Kd of 12.3 nM.

B2: equine IgG4 N434F (antibody, part only; not given: variable domains, not shown: another chain or arm of the molecule)
constant: B1 constant with Y306A, N314F
As to B2, the Kd was determined as 4.4 nM.

B3: equine IgG4 M428C (antibody, part only; not given: variable domains, not shown: another chain or arm of the molecule)
constant: B1 constant with Y306A, M308C
B3 gave a dissociation constant Kd of 53.2 nM.

B4: equine IgG4 N434L (antibody, part only; not given: variable domains, not shown: another chain or arm of the molecule)
constant: B1 constant with Y306A, N314L
Regarding B4, the Kd amounted to 48.5 nM. This Kd and that of the molecule before are within 1.5-fold of each other.

B5: equine IgG4 M428Q (antibody, part only; not given: variable domains, not shown: another chain or arm of the molecule)
constant: B1 constant with Y306A, M308Q
Take B5: the Kd was determined as 30 nM.

B6: equine IgG4 M428P (antibody, part only; not given: variable domains, not shown: another chain or arm of the molecule)
constant: B1 constant with Y306A, M308P
As to B6, the equilibrium dissociation constant (Kd) was 13000 nM.

B7: equine IgG4 M428H (antibody, part only; not given: variable domains, not shown: another chain or arm of the molecule)
constant: B1 constant with Y306A, M308H
Consider B7, for which the Kd stood at 29.4 nM.

B8: equine IgG4 M428N (antibody, part only; not given: variable domains, not shown: another chain or arm of the molecule)
constant: B1 constant with Y306A, M308N
Turning to B8, the Kd was 44.3 nM.

B9: equine IgG4 N434D (antibody, part only; not given: Variable domains, not shown: another chain or arm of the molecule)
constant: B1 constant with Y306A, N314D
As to B9, the Kd was determined as 38.5 nM. This Kd and that of the molecule before are within 1.5-fold of each other.

B10: equine IgG4 N434Q (antibody, part only; not given: variable domains, not shown: another chain or arm of the molecule)
constant: B1 constant with Y306A, N314Q
Turning to B10, the Kd is 17.7 nM.

B11: equine IgG4 N434E (antibody, part only; not given: variable domains, not shown: another chain or arm of the molecule)
constant: B1 constant with Y306A, N314E
For B11, the Kd was 71.3 nM. This Kd is about 4-fold higher than that of the molecule before.

B12: equine IgG4 N434M (antibody, part only; not given: variable domains, not shown: another chain or arm of the molecule)
constant: B1 constant with Y306A, N314M
For the molecule B12, the Kd was 43.4 nM. This Kd lies about 1.6-fold lower than the previous one.

B13: equine IgG4 M428Y (antibody, part only; not given: variable domains, not shown: another chain or arm of the molecule)
constant: B1 constant with Y306A, M308Y
Turning to B13, the Kd stood at 30.8 nM.

B14: equine IgG4 M428E (antibody, part only; not given: variable domains, not shown: another chain or arm of the molecule)
constant: B1 constant with Y306A, M308E
Molecule B14 had a Kd of 40.8 nM.

B15: equine IgG4 M428S (antibody, part only; not given: variable domains, not shown: another chain or arm of the molecule)
constant: B1 constant with Y306A, M308S
Regarding B15, the Kd is 40.6 nM.

B16: equine IgG4 M428F (antibody, part only; not given: variable domains, not shown: another chain or arm of the molecule)
constant: B1 constant with Y306A, M308F
B16 registered a Kd of 25.4 nM.

B17: equine IgG4 M428G (antibody, part only; not given: variable domains, not shown: another chain or arm of the molecule)
constant: B1 constant with Y306A, M308G
B17 gave a Kd of 31.5 nM. This Kd and that of the molecule before are within 1.5-fold of each other.

B18: equine IgG4 M428W (antibody, part only; not given: variable domains, not shown: another chain or arm of the molecule)
constant: B1 constant with Y306A, M308W
The molecule B18 returned a Kd of 31 nM. This Kd and that of the molecule before are within 1.5-fold of each other.

B19: equine IgG4 M428R (antibody, part only; not given: variable domains, not shown: another chain or arm of the molecule)
constant: B1 constant with Y306A, M308R
Regarding B19, the dissociation constant Kd stood at 93.1 nM.

B20: equine IgG4 M428T (antibody, part only; not given: variable domains, not shown: another chain or arm of the molecule)
constant: B1 constant with Y306A, M308T
B20 registered a Kd of 71.8 nM.

B21: equine IgG4 N434H (antibody, part only; not given: Variable domains, not shown: another chain or arm of the molecule)
constant: B1 constant with Y306A, N314H
The molecule B21 registered a Kd of 5.2 nM. Compared with the last molecule, the Kd is about 14-fold lower.

B22: equine IgG4 M428A (antibody, part only; not given: variable domains, not shown: another chain or arm of the molecule)
constant: B1 constant with Y306A, M308A
For the molecule B22, the Kd amounted to 23000 nM.

B23: equine IgG4 M428L (antibody, part only; not given: Variable domains, not shown: another chain or arm of the molecule)
constant: B1 constant with Y306A, M308L
In turn, B23 showed a Kd of 17.4 nM.

B24: equine IgG4 N434I (antibody, part only; not given: variable domains, not shown: another chain or arm of the molecule)
constant: B1 constant with Y306A, N314I
B24 showed a dissociation constant (Kd) of 40.6 nM.

B25: equine IgG4 N434A (antibody, part only; not given: Variable domains, not shown: another chain or arm of the molecule)
constant: B1 constant with Y306A, N314A
For B25, the Kd stood at 17.4 nM.

B26: equine IgG4 N434P (antibody, part only; not given: variable domains, not shown: another chain or arm of the molecule)
constant: B1 constant with Y306A, N314P
B26: the Kd came to 39.4 nM. Against the preceding molecule, the Kd is about 2.3-fold higher.

B27: equine IgG4 M428V (antibody, part only; not given: Variable domains, not shown: another chain or arm of the molecule)
constant: B1 constant with Y306A, M308V
In turn, B27 returned a dissociation constant (Kd) of 75.2 nM.

B28: equine IgG4 M428K (antibody, part only; not given: variable domains, not shown: another chain or arm of the molecule)
constant: B1 constant with Y306A, M308K
In the case of B28, the Kd was 46.2 nM. Compared with the last molecule, the Kd is about 1.6-fold lower.

B29: equine IgG4 N434G (antibody, part only; not given: variable domains, not shown: another chain or arm of the molecule)
constant: B1 constant with Y306A, N314G
Molecule B29 had a Kd of 21.2 nM.

B30: equine IgG4 N434K (antibody, part only; not given: variable domains, not shown: another chain or arm of the molecule)
constant: B1 constant with Y306A, N314K
B30 registered a Kd of 42.8 nM.

B31: equine IgG4 M428D (antibody, part only; not given: Variable domains, not shown: another chain or arm of the molecule)
constant: B1 constant with Y306A, M308D
In turn, B31 came in with a Kd of 40.7 nM.

B32: equine IgG4 N434C (antibody, part only; not given: Variable domains, not shown: another chain or arm of the molecule)
constant: B1 constant with Y306A, N314C
For B32, the Kd was determined as 113 nM.

B33: equine IgG4 M428I (antibody, part only; not given: variable domains, not shown: another chain or arm of the molecule)
constant: B1 constant with Y306A, M308I
With B33, the Kd came out at 49.5 nM. This Kd is about 2.3-fold lower than that of the molecule before.

B34: equine IgG1 T286L (antibody, part only; not given: variable domains, not shown: another chain or arm of the molecule)
constant: ASTTAPKVFALAPGCGTTSDSTVALGCLVSGYFPEPVKVSWNSGSLTSGVHTFPSVLQSSGFYSLSSMVTVPASTWTSETYICNVVHAASNFKVDKRIEPIPDNHQKVCDMSKCPKCPAPELLGGPSVFIFPPNPKDTLMITRTPEVTCVVVDVSQENPDVKFNWYMDGVEVRLATTRPKEEQFNSTYRVVSVLRIQHQDWLSGKEFKCKVNNQALPQPIERTITKTKGRSQEPQVYVLAPHPDELSKSKVSVTCLVKDFYPPEINIEWQSNGQPELETKYSTTQAQQDSDGSYFLYSKLSVDRNRWQQGTTFTCGVMHEALHNHYTQKNVSKNPGK
Regarding B34, the Kd turned out to be 12.3 nM.

B35: equine IgG1 T286Q (antibody, part only; not given: variable domains, not shown: another chain or arm of the molecule)
constant: B34 constant with L174Q
On to B35, for which the Kd came to 17 nM.

B36: equine IgG1 T286P (antibody, part only; not given: variable domains, not shown: another chain or arm of the molecule)
constant: B34 constant with L174P
Turning to B36, the Kd was determined as 14.6 nM. This Kd and that of the molecule before are within 1.5-fold of each other.

B37: equine IgG1 T286M (antibody, part only; not given: variable domains, not shown: another chain or arm of the molecule)
constant: B34 constant with L174M
Take B37: the Kd worked out at 15.6 nM.

B38: equine IgG1 M252A (antibody, part only; not given: variable domains, not shown: another chain or arm of the molecule)
constant: B34 constant with M140A, L174T
On to B38, for which the Kd came to 50.3 nM.

(Values after patent US20260070987A1.)
